Results on five substances are retold here after publication PMC9017650.

The target of test [1] is human FcγRIIIa receptor, V158 variants (human).
In test [2] the target is recombinant human TNFα (human) (UniProt P01375). The test can be described thus: SPR. (SPR reads the build-up and loss of mass on a sensor chip optically.)
The target of the next test is Golimumab B (human). The experiment in a line: SPR; Biacore T200; anti-human Fc antibody immobilised on a CM5 chip, golimumab captured, TNFα as analyte at five concentrations (7.81–125 nM), 30 μL/min, 25°C, 1:1 Langmuir model, KD = Kd/Ka.
The target of a further test is Golimumab A (human). Described as above.

For orientation: koff means the rate constant with which the complex falls apart. In general, Kd refers to a measure of binding affinity in units of concentration. Read a high Kd as weaker binding.

For the substance Golimumab B (antibody), the ADCC reporter gene assay, EC50 (Jurkat NFAT-luciferase cells with FcγRIIIa V158 as effector cells, CHO-K1/hmTNFα as target cells) in test [1] amounted to 0.152 µg/mL. Golimumab B (from UniProt P01857): the koff in test [2] is 0.000149 s⁻¹.

For Golimumab A (from UniProt P01857), the koff in test [2] was found to be 0.000164 s⁻¹. Regarding Golimumab A (antibody), in test [1], the ADCC reporter gene assay, EC50 (Jurkat NFAT-luciferase cells with FcγRIIIa V158 as effector cells, CHO-K1/hmTNFα as target cells) came out at 0.15 µg/mL.

For “recombinant human TNFα (from UniProt P01375 77-233) (ligand)”, the Kd with Golimumab B (human) amounted to 0.0106 nM; in the test with Golimumab A (human), 0.0124 nM.
